This is an account of results in publication PMC12876850 (Cell Death & Disease, 2026).

The assay has as its target T1, FLAG-tagged GSK3β (UniProt P49841 1-420).
T1 construct: glycogen synthase kinase-3β, expressed from a plasmid; also called FLAG-GSK3β; source: HEK-293, co-transfected, in lysate
The assay is described as follows: co-IP; HEK-293 co-transfected with HA-TGase 2 and FLAG-GSK3β at increasing TGase 2:GSK3β plasmid ratios; TGase 2-GSK3β and GSK3β-β-catenin association followed. Particulars: partners not purified.

T1 sequence (P49841 whole entry): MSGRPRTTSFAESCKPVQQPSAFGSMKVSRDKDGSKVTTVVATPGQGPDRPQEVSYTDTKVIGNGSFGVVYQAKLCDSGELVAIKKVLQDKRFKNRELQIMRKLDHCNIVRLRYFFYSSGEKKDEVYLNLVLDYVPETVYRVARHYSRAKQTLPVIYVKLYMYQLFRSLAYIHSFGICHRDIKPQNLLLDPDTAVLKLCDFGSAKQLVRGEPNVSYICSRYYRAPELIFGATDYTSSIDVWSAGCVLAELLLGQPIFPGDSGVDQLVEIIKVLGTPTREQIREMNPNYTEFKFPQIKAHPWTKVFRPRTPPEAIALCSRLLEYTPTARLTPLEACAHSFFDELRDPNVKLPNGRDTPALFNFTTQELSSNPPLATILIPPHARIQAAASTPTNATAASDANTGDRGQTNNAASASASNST

B1: HA-tagged wild-type TGase 2 (enzyme, UniProt P21980 1-687, looked up)
chain: MAEELVLERCDLELETNGRDHHTADLCREKLVVRRGQPFWLTLHFEGRNYEASVDSLTFSVVTGPAPSQEAGTKARFPLRDAVEEGDWTATVVDQQDCTLSLQLTTPANAPIGLYRLSLEASTGYQGSSFVLGHFILLFNAWCPADAVYLDSEEERQEYVLTQQGFIYQGSAKFIKNIPWNFGQFEDGILDICLILLDVNPKFLKNAGRDCSRRSSPVYVGRVVSGMVNCNDDQGVLLGRWDNNYGDGVSPMSWIGSVDILRRWKNHGCQRVKYGQCWVFAAVACTVLRCLGIPTRVVTNYNSAHDQNSNLLIEYFRNEFGEIQGDKSEMIWNFHCWVESWMTRPDLQPGYEGWQALDPTPQEKSEGTYCCGPVPVRAIKEGDLSTKYDAPFVFAEVNADVVDWIQQDDGSVHKSINRSLIVGLKISTKSVGRDEREDITHTYKYPEGSSEEREAFTRANHLNKLAEKEETGMAMRIRVGQSMNMGSDFDVFAHITNNTAEEYVCRLLLCARTVSYNGILGPECGTKYLLNLNLEPFSEKSVPLCILYEKYRDCLTESNLIKVRALLVEPVINSYLLAERDLYLENPEIKIRILGEPKQKRKLVAEVSLQNPLPVALEGCTFTVEGAGLTEEQKTVEIPDPVEAGEEVKVRMDLLPLHMGLHKLVVNFESDKLKAVKGFRNVIIGPA
notes: transglutaminase 2, wild type, expressed from a TGM2 plasmid; also called HA-tagged wild-type TGM2; HA-tagged TGase 2; source: HEK-293, co-transfected, in lysate
As for B1, the “percent decrease of the interaction with GSK3β (of β-catenin, by the legend) at TGase 2:GSK3β plasmid ratio 1:1” value came out at 52% and the “percent decrease of the interaction with GSK3β (of β-catenin, by the legend) at TGase 2:GSK3β plasmid ratio 1:2” value was determined as 45%.
